Experimental data published in paper PMC7158967, “Comparative evaluation of ^68Ga-labelled TATEs: the impact of chelators on imaging” (EJNMMI Research, 2020).
Read-outs that look alike come from different tables or passages of the source.

Legend:
[1] = cited from earlier work
[2] = type: in vitro ADME; settings: human
Description: In vitro serum binding studies for both ^68Ga-labelled NOTA-TATE and DOTA-TATE were carried out by following a generalized procedure summarized below. One millilitre of fresh anticoagulated (heparinized) human plasma was prepared. Freshly labelled compound (3.7 MBq, 0.1 mCi) was added to three centrifuge tubes, each containing 0.1 mL of human plasma. After incubation at 37 °C for 2 h, 1 mL of ice-cold methanol was added to each tube. The mixtures were separated by centrifugation (5 min, 3000 rpm) to collect the supernatant, which was repeated three times. A gamma counter was then used to measure the radioactivity of the supernatant (A) and the precipitate (B) in counts per minute (CPM); the plasma-protein binding rate was calculated as PPB = B/(A + B)100%, and the average of three tubes was recorded.

[3] = Micro-PET/CT imaging of AR42J tumour-bearing nude mice; settings: both sexes, nude, mouse, in vivo, iv, 2.96 MBq, total radioactivity
Description: (§1) Tumour cells were subcutaneously injected into the left forelimb of each nude mouse. Biodistribution and imaging studies were conducted when the tumour volume reached at least 1.0 × 1.0 × 1.0 cm^3.
(§2) Six (3 female and 3 male) mice with AR42J tumour xenografts (15–20 g) were used in the imaging study. All tumour-bearing mice were anaesthetized by intranasal inhalation of isoflurane. […] Images were acquired and reconstructed using micro-PET/CT at 30 min and 2 h after intravenous injection.

[4] = tested on: AR42J tumour-bearing mice; assay: as above; settings: mouse, in vivo
Description: as §1, §2

[5] = Biodistribution in AR42J tumour-bearing nude mice; settings: mouse, in vivo
Description: as §1

[6] = Lipid-water partition (log Po/w), octanol water system; type: physicochemical
Description: The lipid-water partition (logP) of ^68Ga-labelled complexes was determined in the octanol water system by following the procedure mentioned below. In brief, 490 μL of ultrapure water was added to each of three centrifuge tubes containing 0.5 mL of saturated n-octanol and then combined with 10 μL (1.85 MBq/0.05 mCi) of freshly prepared radiolabelled complexes by ultrasonication (3 min). The centrifuge tube was allowed to stand for approximately 1 min for the liquid to become stratified. The upper and lower liquids were defined as groups A (A1, A2, A3) and B (B1, B2, B3), accounting for the organic and aqueous phases, respectively. Then, 0.1 mL was retrieved from each of the 6 sections. The radioactivity (CPM) of both phases was determined using a gamma counter, and the lipid-water partition coefficient was calculated as follows: logP = log (A-background)/(B-background). The average of three tubes was recorded as the logP.

[7] = clinical; settings: human, in vivo, total radioactivity
Description: (§3) Twenty-two healthy volunteers gave informed consent and agreed to participate in the study. […] Each patient was injected with an average activity of 1.9 MBq/kg. The timing of image acquisition ranged from 30 to 45 min after injection (3 min/bed position). The PET image was attenuated and then reconstructed using the iterative reconstruction algorithm implemented.

[8] = tested on: healthy volunteers; assay: clinical; settings: human, in vivo
Description: as §3

[9] = tested on: SSTR2; parameters: method as in PMID 28864614; settings: read-out: half inhibitory concentration (IC50) on SSTR2; cited from earlier work

## O=C(O)CN1CCN(CC(=O)O)CCN(CC(=O)O)CCN(CC(=O)O)CC1 [DOTA, 1,4,7,10-tetraazacyclododecane-1,4,7,10-tetraacetic acid]
[1]; DOTA ^68Ga complex, pseudo-octahedral geometry
  log stability constant of the ^68Ga complex: 21.33

## O=C(O)CN1CCN(CC(=O)O)CCN(CC(=O)O)CC1 [NOTA, 1,4,7-triazacyclononane-1,4,7-triacetic acid]
[1]; NOTA ^68Ga complex, octahedral
  log stability constant of the ^68Ga complex: 30.98

## C[C@@H](O)[C@H](NC(=O)[C@@H]1CSSC[C@H](NC(=O)[C@@H](Cc2ccccc2)NC(=O)CN2CCN(CC(=O)O)CCN(CC(=O)O)CCN(CC(=O)O)CC2)C(=O)N[C@@H](Cc2ccc(O)cc2)C(=O)N[C@H](Cc2c[nH]c3ccccc23)C(=O)N[C@@H](CCCCN)C(=O)N[C@@H]([C@@H](C)O)C(=O)N1)C(=O)O [^68Ga-DOTA-TATE, metal not drawn]
[2]
  fraction unbound: 0.694
[3]
  SUV at 0.5 h: 2.87 SUV
  SUV at 2 h: 1.83 SUV
[4]
  gallbladder radioactivity on micro-PET/CT: minimal gallbladder activity
[5]; %ID/g Blood
  tissue uptake at 0.25 h: 3.03 ± 1.96 %ID/g
[5]; %ID/g Gallbladder
  tissue uptake at 0.25 h: 1.47 ± 0.62 %ID/g
[5]; %ID/g Intestines
  tissue uptake at 0.25 h: 1.56 ± 1.47 %ID/g
  tissue uptake at 0.5 h: 1.58 ± 1.77 %ID/g
  tissue uptake at 2 h: 0.23 ± 0.15 %ID/g
[5]; %ID/g Kidney
  tissue uptake at 0.25 h: 10.3 ± 8.89 %ID/g
  tissue uptake at 0.5 h: 8.12 ± 2.71 %ID/g
  tissue uptake at 2 h: 1.49 ± 0.57 %ID/g
[5]; %ID/g Liver
  tissue uptake at 2 h: 0.08 ± 0.07 %ID/g
[5]; %ID/g Lungs
  tissue uptake at 0.5 h: 2.86 ± 1.47 %ID/g
  tissue uptake at 2 h: 0.98 ± 0.22 %ID/g
[5]; %ID/g Muscle
  tissue uptake at 0.25 h: 1.18 ± 1.26 %ID/g
  tissue uptake at 2 h: 0.04 ± 0.01 %ID/g
[5]; %ID/g Skeleton
  tissue uptake at 0.25 h: 1.94 ± 0.81 %ID/g
  tissue uptake at 0.5 h: 1.1 ± 0.63 %ID/g
  tissue uptake at 1 h: 0.8 ± 0.73 %ID/g
  tissue uptake at 2 h: 0.17 ± 0.06 %ID/g
[5]; %ID/g Spleen
  tissue uptake at 0.25 h: 3.84 ± 4.03 %ID/g
  tissue uptake at 0.5 h: 1.48 ± 0.84 %ID/g
  tissue uptake at 1 h: 1.92 ± 1.75 %ID/g
  tissue uptake at 2 h: 0.21 ± 0.19 %ID/g
[5]; %ID/g Stomach
  tissue uptake at 0.25 h: 4.24 ± 2.66 %ID/g
  tissue uptake at 0.5 h: 0.98 ± 0.49 %ID/g
  tissue uptake at 1 h: 4.26 ± 2.58 %ID/g
[5]; %ID/g Tumour
  tissue uptake at 0.5 h: 3.62 ± 1.94 %ID/g
  tissue uptake at 1 h: 3.14 ± 2.07 %ID/g
  tissue uptake at 2 h: 2.3 ± 1.34 %ID/g
[6]
  log Po/w (partition coefficient): − 2.72 ± 0.16
[7]; both sexes, 1.9 MBq/kg, SUVmax Adrenals, average
  SUV: 15.2 SUV
[7]; both sexes, 1.9 MBq/kg, SUVmax Blood pool, average
  SUV: 0.9 SUV
[7]; both sexes, 1.9 MBq/kg, SUVmax Bone marrow, average
  SUV: 0.8 SUV
[7]; both sexes, 1.9 MBq/kg, SUVmax Kidneys, average
  SUV: 14.5 SUV
[7]; both sexes, 1.9 MBq/kg, SUVmax Large bowel, average
  SUV: 2.2 SUV
[7]; both sexes, 1.9 MBq/kg, SUVmax Liver, average
  SUV: 10.1 SUV
[7]; both sexes, 1.9 MBq/kg, SUVmax Lungs, average
  SUV: 0.8 SUV
[7]; both sexes, 1.9 MBq/kg, SUVmax Lymph nodes, average
  SUV: 1.1 SUV
[7]; both sexes, 1.9 MBq/kg, SUVmax Palatine tonsil, average
  SUV: […]
[7]; both sexes, 1.9 MBq/kg, SUVmax Pancreas, average
  SUV: 6.2 SUV
[7]; both sexes, 1.9 MBq/kg, SUVmax Small bowel, average
  SUV: […]
[7]; both sexes, 1.9 MBq/kg, SUVmax Spleen, average
  SUV: 26.9 SUV
[7]; both sexes, 1.9 MBq/kg, SUVmax Stomach, average
  SUV: […]
[7]; both sexes, 1.9 MBq/kg, SUVmax Submandibular, average
  SUV: […]
[7]; both sexes, 1.9 MBq/kg, SUVmax Thymus, average
  SUV: 1.2 SUV
[7]; both sexes, iv, 1.9 MBq/kg, SUVmax Breast, average
  SUV: 0.6 SUV
[7]; iv, 2.52 mCi, SUVmax kidney, single volunteer
  SUV: 13.9 SUV
[7]; iv, 2.52 mCi, SUVmax liver, single volunteer
  SUV: 9.4 SUV
[7]; iv, 2.52 mCi, SUVmax pituitary, single volunteer
  SUV: […]
[7]; iv, 2.52 mCi, SUVmax spleen, single volunteer
  SUV: […]
[7]; iv, 2.8 mCi, SUVmax liver, single volunteer
  SUV: 7.8 SUV
[7]; iv, 2.8 mCi, SUVmax spleen, single volunteer
  SUV: 16.3 SUV
[8]
  SUVmax Blood pool, range: 0.6~1.4
  SUVmax Kidneys, range: 11.2~17.8
  SUVmax Large bowel, range: 1.6~3.7
  SUVmax Palatine tonsil, range: 1.2~4.1
  SUVmax Parotid gland, range: 1.9~5.4
  SUVmax Pituitary gland, range: 2.4~7.9
  SUVmax Small bowel, range: 2.2~4.9
  SUVmax Stomach, range: 3.1~8.3
  SUVmax Submandibular, range: 1.7~5.7
  SUVmax Thymus, range: 0.7~1.5
  SUVmax kidneys, single value: 17.8
  SUVmax pituitary gland, single value: 7.9
  SUVmax stomach wall, single value: 8.3
  radioactivity in the gallbladder: No radioactivity was seen
  uptake in the brain: not taken up in the brain
[9]
  IC50: […]
